According to the nanobody polyreactivity screen of Harvey et al. (2022):

Test: yeast display, Sf9 membrane polyspecificity reagent, FACS + sequencing; frameworks hold sequencing errors
In short: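 Nanobodies from a synthetic yeast display library (Saccharomyces cerevisiae BJ5465), induced 36–48 hours with galactose, were stained 1 hour at 4 °C with 10% biotinylated, detergent-solubilized Sf9 membrane reagent, enriched on streptavidin microbeads, then FACS-sorted. Anti-HA (expression) and streptavidin (reagent binding) fluorescence set low and high (top ~1%) gates. Polyreactivity labels come from the gate of origin. Genes were colony-PCR amplified, MiSeq 2 × 250 sequenced and filtered by CDR length.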

Row | Sequence | polyreactivity (PSR sort gate)
1 | QVQLVESGGGLVQAGGSLRLSCAASGSIFEVNAMGWYRQAPGKERELVAAISCSGGSTYYADSVKGRFTISRDNAKNTVYLQMNSLKPEDTAVYYCAADWRQGLWYGYYYWGQGTQVTVSS | low polyreactivity
2 | QVQLVESGGGLVQAGGSLRLSCAASGSIFEWYAMGWYRQAPGKERELVADITNNGGSTYYADSVKGRFTISRDNAKNTVYLQMNSLKPEDTAVYYCAADYFDQVPDYYYASEYGYWGQGTQVTVSS | low polyreactivity
3 | QVQLVESGGGLVQAGGSLRLSCAASGSIFEYNTMGWYRQAPGKERELVATISWSGDSTYYADSVKGRFTISRDNAKNTVYLQMNSLKPEDTAVYYCAAQRGAPVDGKSDYWGQGTQVIVSS | low polyreactivity
4 | QVQLVESGGGLVQAGGSLRLSCAASGSIFEYYAMGWYRQAPGKERELVAAISSGGPTYYADSVKGRFTISRDNAKNTVYLQMNSLKPEDTAVYYCNADLWYPDYDYWGQGTQLTVSS | low polyreactivity
5 | QVQLVESGGGLVQAGGSLRLSCAASGSIFEYYTMGWYIPAPGKERECVAAITFTGDSTYYADSVKGRFTISRDNAKNTVFLQMNSLKPEDTAVYYCNADSVTYDGEYDYWGQGTQVTVSS | low polyreactivity
6 | QVQLVESGGGLVQAGGSLRLSCAASGSIFFARYAMGWYRQAPGKERELVAAITRATSTTYADSVKGRFTISRDNAKNTVYLQMNSLKPEDTAVYYCAATKIGGGSFRPYYYWGQGTQVTVSS | high polyreactivity
7 | QVQLVESGGGLVQAGGSLRLSCAASGSIFFDGNAMGWYRQAPGKERELVAAISVSGGSTYYADSVKGRFTISRDYAKTTVYLQINRLKPEDTAVYDCAKYPSKSYVPGDYWGQGTQVTVSS | low polyreactivity
8 | QVQLVESGGGLVQAGGSLRLSCAASGSIFFFNAMGWSRQAPGKERELVATISDTTDTDYADSVKGRFTISRENGKNTVYLQMNSLKPEDTAVYYCAKVKAWTEYYYWGQGTQVTVSS | low polyreactivity
9 | QVQLVESGGGLVQAGGSLRLSCAASGSIFFFYVMGWYRPAPGKERELVAAITYSGGSTFYADSVKGRFTISRDNAKNTVYLQMNSLKPEDTAVYYCAADYGQWTPLDPYNHWGQGTQVTVSS | low polyreactivity
10 | QVQLVESGGGLVQAGGSLRLSCAASGSIFFFYVMGWYRQAPGKERELVAAINNGGSTNYADSVKGRFTISRDNAKNTVYLQMNSLKPEDTAVYYCAADSITSKNQGLDYDYWGQGTQVTVSS | low polyreactivity
11 | QVQLVESGGGLVQAGGSLRLSCAASGSIFFGYAMGWYRPAPGKERELVAAISSDGSTYYADSVKGRFTISRDNAKNTVYLQMNSLKPEDTAVYYCNAEQAIFYWYATVTYDYWGQGTQVTVSS | low polyreactivity
12 | QVQLVESGGGLVQAGGSLRLSCAASGSIFFIYAMGWYRQAPGTERELVATITSGGSTYYADSVKGRFTISRDNAKNTVYLQMNSLKPEDTAVYYCAVDEYYAFDYWGQGTQVTVSS | low polyreactivity
13 | QVQLVESGGGLVQAGGSLRLSCAASGSIFFKYAMGWYRQAPGKERELVASITRGGRTYYADSVKGRFTISRDNAKNTVYLQMNSLKPEDTAVYYCNKRTVWKHDYWGQGTQVTVSS | high polyreactivity
14 | QVQLVESGGGLVQAGGSLRLSCAASGSIFFLYAMGWSRQAPGKEWELVAAISRTGSTYADSVKGRFTISRDNAKNTVYLQMNSLKPEDTAVYYCADEYRYYWYGTMNYWGQGTQVTVSS | low polyreactivity
15 | QVQLVESGGGLVQAGGSLRLSCAASGSIFFLYAMGWYRQAPGKEREFVAAITGTADSTYYADSVKGRFTISRDDAKNTVYLQMNSLKPEDTAVYYCATDYWSSVKLDDYWGQGTQVTVSS | low polyreactivity
16 | QVQLVESGGGLVQAGGSLRLSCAASGSIFFRYAMGWYRQAPGKERELVAGITYSSGSSTYADSVKGRFTISRHNAKNTVYLQMNSLKPEDTAVYYCAAAYRFPGNRYDYWGQGTQVTVSS | low polyreactivity
17 | QVQLVESGGGLVQAGGSLRLSCAASGSIFFRYTMGWYRQAPGKERELVAAITGSGGSTYYADSVKGRFTISRDNAKNTVYLQMNSLKPEDTAVYYCARPGWGRYEYWGQGTQVTVSS | high polyreactivity
18 | QVQLVESGGGLVQAGGSLRLSCAASGSIFFSNAMGGYRQAPGKERELVAAITSTGGSTYYADSVKGRFTISRDNAKNTGYLQMNSLKPEDTAVYYCAAASRRGYYYWGQGTQVTVSS | high polyreactivity
19 | QVQLVESGGGLVQAGGSLRLSCAASGSIFFSSAMGWSRQEPGKERELVAAISSGASTYYADSVKGRFTISRDNAKNTVYLQMNSLKPEDTAVYYCAARGYRLVPVDFYYWGQGTQVTVSS | low polyreactivity
20 | QVQLVESGGGLVQAGGSLRLSCAASGSIFFSYAMGWYRPAPGKERELVAGINWSGGSTYADSVKGRFTLSRDNAKNTVYLQINSLKPEDTAVYYCAAKYYSERSRYHYWGQGTQVTVSS | low polyreactivity
21 | QVQLVESGGGLVQAGGSLRLSCAASGSIFFTYAMGWYRQAPGKERELVAGISWGGGSTHYADSVKGRFTISRDNAKNTVYLQMNSLKPEDTAVYYCARVWPYPSTEYGYTGRLYDYWGQGTQVTVSS | low polyreactivity

Row | Sequence | polyreactivity (PSR sort gate)
22 | QVQLVESGGGLVQAGGSLRLSCAASGSIFFYNVMGWYRQAPGKERELVASISWRGASTYYADSVKGRFTISRDNAKNTVYLQMNSLKPEDTAVYYCAARFGSATRYQTGYYWGQGTQVTVSS | high polyreactivity
23 | QVQLVESGGGLVQAGGSLRLSCAASGSIFGANAMGWYRQAPGKERELVAAISSGDSTYADSVKGRFTISRDNAKNTVYLQMNSLKPEDTAVYYCATCRYGGQGYPFYYWGQGTQVTVSS | low polyreactivity
24 | QVQLVESGGGLVQAGGSLRLSCAASGSIFGANTMGWYRQAPGKERELVAGITSGARTYYADSVKGRFTISRDNAKNTVYLQMNSLKPEDTAVYYCAADTWKVFGVDYWGQGTQVTVSS | high polyreactivity
25 | QVQLVESGGGLVQAGGSLRLSCAASGSIFGAYAMGSYRQAPGKERELVASISDGGGTYYADSVKGRFTISRDNAKNTVYLQMNSLKPEDTAVYYCAADPPKRVPGGYWGQGTQVTVSS | low polyreactivity
26 | QVQLVESGGGLVQAGGSLRLSCAASGSIFGAYDMGWSRQAPGKERELVASITSGDSTNYADSVTGRFTISRDNAKNTVYLQMNSLKPEDTAVYYCAADLAVAVAADYDSWGQGTQVTVSS | low polyreactivity
27 | QVQLVESGGGLVQAGGSLRLSCAASGSIFGAYGMGWYRQAPGKEREFVAAITGRGSTTYYADSVKGRFTISRDNAKNTVYLQMTSLKPEDTAVYYCNTRYRGLYHYPMGSWGQGTQVTVSS | high polyreactivity
28 | QVQLVESGGGLVQAGGSLRLSCAASGSIFGAYTMGWYRQAPGKERELVAAISIGGSTNYADSVKGRFTISRDNAKNTVYLQMNSLKPEDTAVYYCAAYRQANRYGGEDYWGLGTQVTVSS | high polyreactivity
29 | QVQLVESGGGLVQAGGSLRLSCAASGSIFGAYTMGWYRQAPGKERELVAAITGGGITNYADSVKGRFTISRDNAKNTVYLQMNSLKPEDTAVYYCNAGYPPQTVVVGYDYWGQGTQVTVSS | low polyreactivity
30 | QVQLVESGGGLVQAGGSLRLSCAASGSIFGDNVMGWYRPAPGKERELVAAISRSGGSTYYADSVKGRFTISRDNAKNTVYVEMNSLIPEDSSVYYCAARYWSWRSFKVDYWGQGTQVTVSS | high polyreactivity
31 | QVQLVESGGGLVQAGGSLRLSCAASGSIFGEYAMGWYRQAPGKERELVAGITSDGSTNYADSVKGRFTISRDNAKNTVYLQMNSLKQEDTAVYYCAAAGYVYHWAPRGSRYYYWGQGTQVTVSS | low polyreactivity
32 | QVQLVESGGGLVQAGGSLRLSCAASGSIFGFNALGWYRQAPGKERELVAAINNGGSTNYADSVKGRFTISRDNATNTVYLQMNSLKPEDTAVYYCAARLNYIRRGYWGQGTQVTVSS | high polyreactivity
33 | QVQLVESGGGLVQAGGSLRLSCAASGSIFGFNAMGWYRQAPGKERELVAAINNGGSTNYADSVKGRFTISRDNAKNTVYLQMNSLKPEDTAVYYCAARLNYIRRGYWGQGTQVTVSS | high polyreactivity
34 | QVQLVESGGGLVQAGGSLRLSCAASGSIFGFNAMGWYRQAPGKERELVAAISGRGTGTYYADSVKGRFTISRDNAKNTVYLQMNSLKPEDTAVYYCYTYYYWGQGTQVTVSS | high polyreactivity
35 | QVQLVESGGGLVQAGGSLRLSCAASGSIFGFNAMGWYRQAPGKERELVAAISSGGITNYADSVKGRFTISRDNAKNTVSLQMNSLKPEVTAVYYCAAASESNWSFNYWGQGTQVTVSS | low polyreactivity
36 | QVQLVESGGGLVQAGGSLRLSCAASGSIFGFNAMGWYRQAPGKERELVAAISSGSTYYADSVKGRFTISRDNAKNTVYLQMNRLKPEDTAVYYCAATTGYSWYGYWGQGTQVTVSS | low polyreactivity
37 | QVQLVESGGGLVQAGGSLRLSCAASGSIFGFNTMGWYRQAPGKERELVATINRSGGSTYYADSVKGRFTISRDNAKNTVYVQINSLKPEDTAVYYCAKDVWRHYMNLYDYWGQGTQVTVSS | low polyreactivity
38 | QVQLVESGGGLVQAGGSLRLSCAASGSIFGFYAKGWSRQAPGKEWELVAAITSGDSTHYADSVKGRFTISRDNAKNTVYLQMKSLKPEDTAVNYCAASAPYRYYRSAYSYWGLGTQVTVSS | low polyreactivity
39 | QVQLVESGGGLVQAGGSLRLSCAASGSIFGFYAMGWSRQAPGKERELVAAITSGARTTYADSVKGRFTISRDNAKNTVYLQMNSLKPEDTAVYYSNADTGLGSLDFDKRDYWGQGTQVTVSS | low polyreactivity
40 | QVQLVESGGGLVQAGGSLRLSCAASGSIFGFYAMGWYRQAPGKERELVAAITTGGSTYYADSVKGRFTISRDNAKNNVYFQMISLKPEDTAVYYCAKERWFPYERNDYWGQGTLVTVSS | low polyreactivity
41 | QVQLVESGGGLVQAGGSLRLSCAASGSIFGFYAMGWYRQAPGKERELVAAITYSGGSTYADSVKGRFTISRDNAKNTVYLQMNSLKPEDTAVYYCAKDAELDITDAFYYWGQGTQVTVSS | low polyreactivity
